In patent US20030162942A1 (DYAX, published 2003):
Positions of bridges follow the written chain, without caps; N, C: chain ends. No end group written: not given here.

Biological target: T1, recombinant human tissue-type plasminogen activator (tPA) (human, UniProt P00750 36-562)
T1 construct: Immobilized on ReactiGel agarose beads for the phage work; Used in solution for the column tests
Assay: peptide bound to a chromatographic support

T1 sequence (P00750 36-562 limits assumed): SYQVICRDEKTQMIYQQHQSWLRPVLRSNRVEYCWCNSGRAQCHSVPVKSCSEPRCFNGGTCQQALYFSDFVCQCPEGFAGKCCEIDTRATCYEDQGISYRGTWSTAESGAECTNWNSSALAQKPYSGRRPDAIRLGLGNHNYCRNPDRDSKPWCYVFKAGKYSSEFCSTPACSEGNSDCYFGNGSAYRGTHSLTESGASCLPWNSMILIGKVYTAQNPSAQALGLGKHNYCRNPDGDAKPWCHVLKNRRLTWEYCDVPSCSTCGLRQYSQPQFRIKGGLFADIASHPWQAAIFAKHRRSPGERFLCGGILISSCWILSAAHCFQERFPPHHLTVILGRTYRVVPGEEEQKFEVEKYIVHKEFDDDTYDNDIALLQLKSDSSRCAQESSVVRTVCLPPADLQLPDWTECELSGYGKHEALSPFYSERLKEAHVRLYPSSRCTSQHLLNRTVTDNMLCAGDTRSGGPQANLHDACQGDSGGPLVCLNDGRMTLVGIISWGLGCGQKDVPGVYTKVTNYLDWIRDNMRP

B1: 15-amino acid segment derived from affinity ligand isolate #109 (peptide)
peptide: RLCPKTDLGCMKDSD
modifications: disulfide 3-10; also: bound to a chromatographic support
notes: also called truncated 15-amino acid segment of the isolate #109; C3-C10 loop
binding result: binds
